Measured values as given in US20230049732A1 (UNIVERSITY OF LOUISVILLE RESEARCH FOUNDATION, published 2023).

B1: MAb #19B (antibody, V domains shown)
VH: QVQLQQSGAELARPGASVKMSCKASGYTFTSYTMYWVKQRPGQGLEWIGYVNPSSGYTNYNQKFKDKATLTADKSSSTAYMQLSSLTSEDSAVYYCARHGNYRYDGYYGMDCWGQGTSVTVSS
VL: DIQMTQSSSSFSVSLGDRVTITCKASEDIYNRLAWYQQKPGNAPRLLISGATSLETGVPSRFSGSGSGKDYTLSITSLQTEDVATYYCQQYWSTPYTFGGGTKLEIK
notes: Murine hybridoma antibody, supernatant; also called antibody 19
B2: MAb #61 (antibody, V domains shown)
VH: QVQLQQSGAELARPGASVKMSCKASGYTFTSYTMHWVKQRPGQGLEWIGYINPSSGYTNYNQKFKDKATLTADKSSSTAYMQLSSLTSEDSAVYYCARPDGYYAWFAYWGQGTLVTVSA
VL: DIQMTQSSSSFSVSLGDRVTITCKASEDIYNRLAWYQQKPGNAPRLLISGATSLETGVPSRFSGSGSGKDYTLSITSLQTEDVATYYCQQYWSTPTFGGGTKLEIK
notes: Murine hybridoma antibody, supernatant; also called antibody 61

Columns and labels:
[1] = molecular target: T1, HPV16 VLPs (human papillomavirus type 16, UniProt P03101 1-505); assay: ELISA, intact VLPs coated, hybridoma supernatant
T1 construct: Specificity control; also called human papillomavirus VLPs
T1 sequence: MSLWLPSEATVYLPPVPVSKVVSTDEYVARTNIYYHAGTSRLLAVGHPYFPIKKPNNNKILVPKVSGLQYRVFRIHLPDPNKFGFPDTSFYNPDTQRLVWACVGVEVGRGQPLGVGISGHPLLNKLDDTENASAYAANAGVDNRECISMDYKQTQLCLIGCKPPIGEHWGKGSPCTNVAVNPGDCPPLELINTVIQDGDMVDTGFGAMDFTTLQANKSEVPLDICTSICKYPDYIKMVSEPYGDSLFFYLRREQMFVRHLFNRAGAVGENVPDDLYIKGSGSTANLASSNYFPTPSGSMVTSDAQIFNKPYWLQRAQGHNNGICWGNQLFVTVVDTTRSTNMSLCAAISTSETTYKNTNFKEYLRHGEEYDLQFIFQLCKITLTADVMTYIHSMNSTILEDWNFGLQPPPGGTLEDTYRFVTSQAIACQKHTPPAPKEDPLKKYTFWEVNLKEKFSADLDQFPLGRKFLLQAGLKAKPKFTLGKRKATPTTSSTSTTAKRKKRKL

[2] = molecular target: T1, HPV16 VLPs; assay: ELISA, VLPs coated

Binder | ELISA absorbance (405 nm) [1] | binding result [2]
B1 | 0.015 | no binding
B2 | 0.061 | no binding
